{"source": "paper PMC12269619", "about": "(2025)", "binders": {"B1": {"name": "Biotinylated junctional peptide Pep21 (PfCSP peptide 21) (peptide)", "peptide": "NPDPNANPNVDPNAN", "modifications": "also: biotinylated, position not given here"}, "B2": {"name": "m43.151 Fab (Fab, V domains shown)", "VH": "QVHLVQSGAEVKKPGASVKVSCKASGYTFTSYAIHWVRQAPGQRLEWMGWIKGGNGNTRYSQKFQDRVTITRDTSASTAYMELSSLRSEDTAVYYCALLTVITPDDAFDIWGQGTMVTVSS", "VL": "not shown"}, "B3": {"name": "P3-43 Fab (m43.151 P100K_H) (Fab, V domains shown)", "VH": "QVHLVQSGAEVKKPGASVKVSCKASGYTFTSYAIHWVRQAPGQRLEWMGWIKGGNGNTRYSQKFQDRVTITRDTSASTAYMELSSLRSEDTAVYYCALLTVITKDDAFDIWGQGTMVTVSS", "VL": "not shown"}, "B4": {"name": "m42.127 Fab (Fab, V domains shown)", "VH": "QVQLVQSGAEVKKPGASVKVSCKASGYTFTSYAIHWVRQAPGQRLEWMGWIKAGNGNTRYSQKFQDRVTITRDTSASTAYMELSSLRSEDTAVYYCALLTVITPDDTFDIWGQGTMVTVSS", "VL": "not shown"}, "B5": {"name": "P3-42 Fab (m43.151 A100cR_H) (Fab, V domains shown)", "VH": "QVHLVQSGAEVKKPGASVKVSCKASGYTFTSYAIHWVRQAPGQRLEWMGWIKGGNGNTRYSQKFQDRVTITRDTSASTAYMELSSLRSEDTAVYYCALLTVITPDDRFDIWGQGTMVTVSS", "VL": "not shown"}, "B6": {"name": "P3-21 Fab (m42.127 T99R_H P100Q_H) (Fab, V domains shown)", "VH": "QVQLVQSGAEVKKPGASVKVSCKASGYTFTSYAIHWVRQAPGQRLEWMGWIKAGNGNTRYSQKFQDRVTITRDTSASTAYMELSSLRSEDTAVYYCALLTVIRQDDTFDIWGQGTMVTVSS", "VL": "not shown"}}, "key": {"P3-3": {"target": "P3-3", "assay": "BLI"}, "P3-10": {"target": "P3-10", "assay": "BLI"}, "P3-9": {"target": "P3-9", "assay": "BLI"}, "P3-17": {"target": "P3-17", "assay": "BLI"}, "P3-19": {"target": "P3-19", "assay": "BLI"}, "P3-45": {"target": "P3-45", "assay": "BLI"}, "P3-7": {"target": "P3-7", "assay": "BLI"}, "[1]": {"target": "T1, Biotinylated junctional peptide NPDP19 (Plasmodium falciparum (isolate 3D7), also: biotinylated, position not given here)", "T1 chain": "KQPADGNPDPNANPNVDPN", "assay": "BLI"}, "PfCSPm [2]": {"target": "PfCSPm", "assay": "BLI; KD1"}, "PfCSPm [3]": {"target": "PfCSPm", "assay": "BLI; KD2, second site"}, "[4]": {"target": "B1", "assay": "BLI"}}, "note": "Ends that are not written are not given here.", "data": [{"binder": "B1", "values": [{"measurement": "Kd", "setting": "P3-3", "result": 15.4, "unit": "nM"}, {"measurement": "Kd", "setting": "P3-10", "result": 20.4, "unit": "nM"}, {"measurement": "Kd", "setting": "P3-9", "result": 21.8, "unit": "nM"}, {"measurement": "Kd", "setting": "P3-17", "result": 17.8, "unit": "nM"}, {"measurement": "Kd", "setting": "P3-19", "result": 14.6, "unit": "nM"}, {"measurement": "Kd", "setting": "P3-45", "result": 19, "unit": "nM"}, {"measurement": "Kd", "setting": "P3-7", "result": 24, "unit": "nM"}]}, {"binder": "B2", "values": [{"measurement": "Kd", "setting": "[1]", "result": 2.2, "unit": "nM"}, {"measurement": "Kd", "setting": "PfCSPm [2]", "result": 38.3, "unit": "nM"}, {"measurement": "Kd", "setting": "PfCSPm [3]", "result": 1700, "unit": "nM"}]}, {"binder": "B3", "values": [{"measurement": "Kd", "setting": "[1]", "result": 1.7, "unit": "nM"}, {"measurement": "Kd", "setting": "PfCSPm [2]", "result": 33.9, "unit": "nM"}, {"measurement": "Kd", "setting": "PfCSPm [3]", "result": 1700, "unit": "nM"}]}, {"binder": "B4", "values": [{"measurement": "Kd", "setting": "[1]", "result": 2.2, "unit": "nM"}, {"measurement": "Kd", "setting": "PfCSPm [2]", "result": 31.6, "unit": "nM"}, {"measurement": "Kd", "setting": "PfCSPm [3]", "result": 2000, "unit": "nM"}]}, {"binder": "B5", "values": [{"measurement": "Kd", "setting": "[1]", "result": 2.6, "unit": "nM"}, {"measurement": "Kd", "setting": "[4]", "result": 14.5, "unit": "nM"}, {"measurement": "Kd", "setting": "PfCSPm [2]", "result": 13, "unit": "nM"}, {"measurement": "Kd", "setting": "PfCSPm [3]", "result": 3400, "unit": "nM"}]}, {"binder": "B6", "values": [{"measurement": "Kd", "setting": "[1]", "result": 2, "unit": "nM"}, {"measurement": "Kd", "setting": "[4]", "result": 18, "unit": "nM"}, {"measurement": "Kd", "setting": "PfCSPm [2]", "result": 20.2, "unit": "nM"}, {"measurement": "Kd", "setting": "PfCSPm [3]", "result": 1200, "unit": "nM"}]}]}
